Laboratory results as given in publication PMC8613289.

What was measured:
Experiment in all cases: TurboID proximity biotinylation, streptavidin pull-down, MS-based proteomics
Settings in all cases: biotin for 1 h; n = 5; read off a plot
[1] = target: RANGAP1
[2] = target: Nup50 (UniProt Q9UKX7)
[3] = target: Nup214 (UniProt P35658)
[4] = target: RanBP2 (UniProt P49792)
[5] = target: NDC1
[6] = target: AHCTF1
[7] = target: NUPL2

Substance	other: Student's T-test Difference WT NLS1 [1]	other: Student's T-test Difference WT NLS1 [2]	other: Student's T-test Difference WT NLS1 [3]	other: Student's T-test Difference WT NLS1 [4]	other: Student's T-test Difference WT NLS1 [5]	other: Student's T-test Difference WT NLS1 [6]	other: Student's T-test Difference WT NLS1 [7]	other: Student's T-test Difference WT NLS2 [1]	other: Student's T-test Difference WT NLS2 [2]	other: Student's T-test Difference WT NLS2 [3]	other: Student's T-test Difference WT NLS2 [4]	other: Student's T-test Difference WT NLS2 [6]
EphA2-V5-TurboID (wild-type EphA2) (from UniProt P29317) NLS1 (RRR>AAA in the juxtamembrane stretch …, as read from Fig. 3a; no residue numbers printed)	1.8	2.5	2	1.5	-1	0.5	-1.6					
EphA2-V5-TurboID (wild-type EphA2) (from UniProt P29317) NLS2 (two K>A in the stretch …, as read from Fig. 3a; no residue numbers printed)								2.6	3.1	2.9	2.1	1.3
